Experimental data from PMC11742427, “Structural basis for metal ion transport by the human SLC11 proteins DMT1 and NRAMP1” (Nature Communications, 2025).

T1: human DMT1 (SLC11A2) (human, UniProt P49281-3 2-590, chemically biotinylated (EZ-Link NHS-PEG4-Biotinylation kit) for the SPR experiments)
T1 construct: human DMT1 (SLC11A2), UniProt P49281-3; Tags follow an HRV-3C site and were removed with HRV 3C protease; The same construct was used without biotin for the SEC of the complexes; source: HEK293S GnTI- cells, transient transfection, purified in DDM/CHS (StrepTactin, SEC); not shown: Myc, C-terminal, cleaved
T1 sequence: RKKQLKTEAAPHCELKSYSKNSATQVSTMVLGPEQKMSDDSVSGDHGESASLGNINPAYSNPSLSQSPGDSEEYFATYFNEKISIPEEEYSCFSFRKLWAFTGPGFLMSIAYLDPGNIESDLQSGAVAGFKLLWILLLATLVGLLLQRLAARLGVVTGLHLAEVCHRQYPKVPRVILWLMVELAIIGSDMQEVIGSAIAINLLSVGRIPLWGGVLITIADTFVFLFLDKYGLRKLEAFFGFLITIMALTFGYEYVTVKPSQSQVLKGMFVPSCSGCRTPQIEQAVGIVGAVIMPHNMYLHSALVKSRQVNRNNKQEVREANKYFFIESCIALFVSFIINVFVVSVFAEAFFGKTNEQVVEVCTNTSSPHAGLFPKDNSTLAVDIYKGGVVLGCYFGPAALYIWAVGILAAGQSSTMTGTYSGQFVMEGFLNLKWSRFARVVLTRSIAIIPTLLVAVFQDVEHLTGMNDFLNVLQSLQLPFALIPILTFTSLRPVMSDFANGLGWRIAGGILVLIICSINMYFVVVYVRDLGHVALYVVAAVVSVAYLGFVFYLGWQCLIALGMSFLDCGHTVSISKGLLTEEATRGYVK


Tests used:
human DMT1 (SLC11A2) [1] = biological target: T1, human DMT1 (SLC11A2); assay: SPR; chemically biotinylated DMT1 or NRAMP1 immobilised on a SAD200M chip (about 900 RU); sybodies injected at 7.8-500 nM, 10 °C, 30 µl/min; 10 mM HEPES pH 7.4, 150 mM NaCl, 0.04% DDM, 0.004% CHS, 0.1% BSA; fit to a 1:1 binding model; conditions: both partners purified
human DMT1 (SLC11A2) [2] = biological target: T2, human DMT1 (SLC11A2) (Homo sapiens, DMT1 isoform 3 (P49281-3), UniProt P49281-3, chemically biotinylated (EZ-Link NHS-PEG4-Biotinylation kit) for the SPR assay; not for cryo-EM); assay: SPR; chemically biotinylated DMT1 or NRAMP1 immobilised on a SAD200M chip (~900 RU); sybodies injected at 7.8-500 nM, 10 °C, 30 µl/min; 10 mM HEPES pH 7.4, 150 mM NaCl, 0.04% DDM, 0.004% CHS, 0.1% BSA; single-site binding model; conditions: both partners purified
T2 construct: human DMT1 (SLC11A2), UniProt identifier P49281-3, codon-optimised synthetic gene in pcDXC3MS; The C-terminal HRV-3C site was cut, so residues of the cleavage site are left on the C-terminus; One construct was used for SPR (biotinylated, immobilised) and cryo-EM; source: HEK293S GnTI- cells, transient transfection, purified in DDM/CHS (StrepTactin, HRV 3C cleavage, SEC); not shown: Myc, …

Binder	Kd (human DMT1 (SLC11A2) [1])	Kd (human DMT1 (SLC11A2) [2])
sybody Sb2^DMT1 (VHH, synthetic nanobody (sybody) selected against DMT1; the tags are surmised from the vector; Not resolved in the maps of PDB 9F6N and 9F6O) VHH: QVQLVESGGGLVQAGGSLRLSCAASGFPVNAAWMHWYRQAPGKEREWVAAIRSAGHLTEYADSVKGRFTISRDNAKNTVYLQMNNLKPEDTAVYYCWVYVGESYHGQGTQVTVSA	48 nM	
sybody Sb1^DMT1 (VHH, synthetic nanobody (sybody) selected against DMT1; the tags are surmised from the vector) VHH: QVQLVESGGGLVQAGGSLRLSCAASGFPVSRSEMYWYRQAPGKEREWVAAIHSIGWNTRYADSVKGRFTISRDNAKNTVYLQMNSLKPEDTAVYYCNVKDAGWFWTNYDYWGQGTQVTVSA	55 nM	
Sb1^DMT1 (sybody, synthetic nanobody selected against DMT1) (VHH, Selected from synthetic nanobody (sybody) libraries; The sybody model PDB 7P5V was only the starting model for building Sb1, not Sb1 itself) VHH: QVQLVESGGGLVQAGGSLRLSCAASGFPVSRSEMYWYRQAPGKEREWVAAIHSIGWNTRYADSVKGRFTISRDNAKNTVYLQMNSLKPEDTAVYYCNVKDAGWFWTNYDYWGQGTQVTVSA		~50 nM
